Blank lines part the entries; values can stand above or below the molecule they belong to.
Assays:
[1] = target: T1, Leukocyte 12-lipoxygenase (leukocyte LOX) (Sus scrofa, UniProt P16469); test: Kinetics of oxygenation of arachidonic acid or arachidonoyl-lysophospholipids by leukocyte LOX; assay type: biochemical, porcine; details: leukocyte LOX 1 unit/ml, 100 mM phosphate buffer pH 7.5, 5 mM EDTA, 0.03% Tween 20
T1 construct: purchased Cayman Chemical Co. (Ann Arbor, Mich., USA)
T1 sequence (P16469 1-663): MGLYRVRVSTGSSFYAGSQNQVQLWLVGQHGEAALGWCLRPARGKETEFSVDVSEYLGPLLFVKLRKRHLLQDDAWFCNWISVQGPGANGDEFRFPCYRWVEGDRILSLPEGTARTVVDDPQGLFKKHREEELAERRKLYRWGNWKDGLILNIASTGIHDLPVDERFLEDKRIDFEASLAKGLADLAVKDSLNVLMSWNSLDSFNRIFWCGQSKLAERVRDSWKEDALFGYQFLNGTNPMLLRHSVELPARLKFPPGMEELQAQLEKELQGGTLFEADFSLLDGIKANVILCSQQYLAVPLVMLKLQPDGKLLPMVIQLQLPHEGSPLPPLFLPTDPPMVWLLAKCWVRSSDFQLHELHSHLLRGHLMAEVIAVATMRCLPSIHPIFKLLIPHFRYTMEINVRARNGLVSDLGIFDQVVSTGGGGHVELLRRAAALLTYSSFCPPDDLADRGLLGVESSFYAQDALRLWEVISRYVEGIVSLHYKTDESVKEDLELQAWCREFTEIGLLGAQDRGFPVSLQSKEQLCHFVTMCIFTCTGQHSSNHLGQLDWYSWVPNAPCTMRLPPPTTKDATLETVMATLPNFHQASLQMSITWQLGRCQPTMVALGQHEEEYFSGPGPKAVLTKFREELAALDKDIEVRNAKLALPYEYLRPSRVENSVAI
Method: (§1) Activities of various LOXs were monitored by measuring the increase in absorbance at 234 nm due to the formation of hydroperoxide (ε234=25,000 M^−1 cm^−1) at 25° C. as described before (Smith et al, J. Biol. Chem. 247 (1972) 1038-1047). One unit is defined as the amount of LOXs that can produce one nanomole of conjugated diene per min. The reaction mixture (500 μl) included reticulocyte LOX (2 units/ml) in 50 mM phosphate buffer (pH 7.4), porcine leukocyte LOX (1 unit/ml) in 100 mM phosphate buffer (pH 7.5) containing 5 mM EDTA and 0.03% Tween 20, or soybean LOX-1 (2.5 units/ml) in 50 mM borax buffer (pH 9.0) at 25° C. The reactions were started by including each substrate (100 μM) into the above reaction mixture.
(§2) Reticulocyte LOX (2 units/ml), leukocyte LOX (1 units/ml) or soybean LOX-1 (2.5 units/ml) was incubated with each arachidonoyl derivative substrate of various concentrations as described above. The values of kinetic parameters were obtained according to Lineweaver Burke plot analyses as described before (Barroso et al, J. Chromatogr. B. Analyt. Technol. Biomed. Life. Sci. 814 (2005) 21-28).

soybean LOX-1 [2] = target: T2, soybean LOX-1 (Glycine max, UniProt P08170); test: Kinetics of oxygenation of arachidonic acid or arachidonoyl-lysophospholipids by soybean LOX-1; assay type: biochemical; details: soybean LOX-1 2.5 units/ml, 50 mM borax buffer pH 9.0; unit = one nanomole conjugated diene per min
T2 construct: purchased Sigma-Aldrich Corp (St. Louis, Mo., USA) lipoxidase Type I-B
T2 sequence (P08170 1-839): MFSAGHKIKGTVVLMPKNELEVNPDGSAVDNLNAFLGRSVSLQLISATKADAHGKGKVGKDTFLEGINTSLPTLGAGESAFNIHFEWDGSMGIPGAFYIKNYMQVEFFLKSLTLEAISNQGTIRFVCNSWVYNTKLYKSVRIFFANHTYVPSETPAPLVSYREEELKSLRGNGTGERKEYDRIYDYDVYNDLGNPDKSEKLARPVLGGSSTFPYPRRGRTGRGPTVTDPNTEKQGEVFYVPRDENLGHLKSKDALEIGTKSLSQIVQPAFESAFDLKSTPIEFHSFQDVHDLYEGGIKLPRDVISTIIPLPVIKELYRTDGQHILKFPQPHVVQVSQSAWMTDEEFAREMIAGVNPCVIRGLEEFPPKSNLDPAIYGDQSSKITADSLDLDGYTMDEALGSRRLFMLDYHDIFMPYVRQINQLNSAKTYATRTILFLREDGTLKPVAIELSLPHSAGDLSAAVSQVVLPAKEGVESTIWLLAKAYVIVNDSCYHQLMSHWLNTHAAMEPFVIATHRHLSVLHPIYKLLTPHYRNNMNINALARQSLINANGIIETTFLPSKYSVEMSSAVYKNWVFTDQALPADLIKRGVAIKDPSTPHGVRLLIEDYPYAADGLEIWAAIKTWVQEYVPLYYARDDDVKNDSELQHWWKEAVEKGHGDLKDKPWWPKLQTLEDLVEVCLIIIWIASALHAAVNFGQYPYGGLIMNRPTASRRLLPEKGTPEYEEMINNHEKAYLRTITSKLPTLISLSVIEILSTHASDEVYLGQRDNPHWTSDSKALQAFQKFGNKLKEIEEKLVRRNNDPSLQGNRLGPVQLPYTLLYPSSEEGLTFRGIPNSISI
Method: as §1, §2

Reticulocyte LOX = target: T3, Reticulocyte LOX (Oryctolagus cuniculus, UniProt P12530); test: Kinetics of oxygenation of linoleoylated substrates by reticulocyte LOX; assay type: biochemical, Rabbit; details: reticulocyte LOX 8.2 units/ml, 50 mM phosphate buffer pH 7.4, 25° C.; for Km: substrate 3-100 μM
T3 construct: purchased Biomol Inc. (Plymouth Meeting, Pa., USA)
T3 sequence (P12530 1-663): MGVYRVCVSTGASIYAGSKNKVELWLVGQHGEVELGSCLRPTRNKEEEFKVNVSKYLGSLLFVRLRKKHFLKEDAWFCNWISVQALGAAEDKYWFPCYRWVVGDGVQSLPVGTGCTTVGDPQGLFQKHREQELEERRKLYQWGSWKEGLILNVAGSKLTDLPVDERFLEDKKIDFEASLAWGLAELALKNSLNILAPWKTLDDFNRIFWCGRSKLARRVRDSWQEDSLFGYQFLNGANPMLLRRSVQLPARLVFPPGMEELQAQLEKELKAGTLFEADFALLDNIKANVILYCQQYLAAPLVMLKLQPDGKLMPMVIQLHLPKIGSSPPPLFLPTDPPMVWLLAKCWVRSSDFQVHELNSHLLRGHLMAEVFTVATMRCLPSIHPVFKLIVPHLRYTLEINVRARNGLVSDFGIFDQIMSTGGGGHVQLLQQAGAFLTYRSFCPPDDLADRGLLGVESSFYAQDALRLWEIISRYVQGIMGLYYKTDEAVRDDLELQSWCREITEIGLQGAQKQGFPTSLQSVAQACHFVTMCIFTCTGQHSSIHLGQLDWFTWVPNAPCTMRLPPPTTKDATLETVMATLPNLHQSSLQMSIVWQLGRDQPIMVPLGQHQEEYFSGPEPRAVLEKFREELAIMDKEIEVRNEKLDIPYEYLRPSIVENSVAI
Description: (§3) Data were expressed as means ±S.D. of results from at least three independent experiments.

Porcine leukocyte LOX = target: T4, Porcine leukocyte LOX (Sus scrofa, UniProt P16469); test: Kinetics of oxygenation of linoleoylated substrates by leukocyte LOX; assay type: biochemical; details: porcine leukocyte LOX 1.5 units/ml, 100 mM phosphate buffer pH 7.5, 5 mM EDTA
T4 construct: purchased Cayman Chemical Co. (Ann Arbor, Mich., USA)
T4 sequence (P16469 1-663): T1 sequence (P16469 1-663)
Description: as §3

soybean LOX-1 [3] = target: T2, soybean LOX-1; test: Kinetics of oxygenation of docosahexaenoic acid derivatives by soybean LOX-1; assay type: biochemical; details: soybean LOX-1 2.5 units/ml, 50 mM borax buffer pH 9.0, 25° C.
Method: (§4) Soybean LOX-1 (2.5 units/ml) was incubated with docosahexaenoyl-lysoPC, didocosahexaenoyl-lysoPC or docosahexaenoic acid of various concentrations in 500 μl of 50 mM borax buffer (pH 9.0) at 25° C. Values were expressed as means ±S.D. of results from at least three independent experiments.

[4] = substrate: CCCCC/C=C\C/C=C\C/C=C\C/C=C\CCCC(=O)O; test: Kinetics of oxygenation of arachidonic acid or arachidonoyl-lysophospholipids by leukocyte LOX; assay type: biochemical, porcine; details: other: leukocyte LOX 1 unit/ml, 100 mM phosphate buffer pH 7.5, 5 mM EDTA, 0.03% Tween 20, 25° C.
Method: as §1, §2

[5] = substrate: CC/C=C\C/C=C\C/C=C\C/C=C\C/C=C\C/C=C\CCC(=O)O; test: Kinetics of oxygenation of docosahexaenoyl-lysoPC or docosahexaenoic acid by leukocyte LOX; assay type: biochemical; details: other: porcine leukocyte LOX 2 units/ml, 100 mM phosphate buffer pH 7.4, 5 mM EDTA, 0.03% Tween 20, 25° C.
Method: Porcine leukocyte LOX (2 units/ml) was incubated with each substrate docosahexaenoyl-lysoPC or docosahexaenoic acid of various concentrations in 500 μl of 100 mM phosphate buffer (pH 7.4) containing 5 mM EDTA and 0.03% Tween 20 at 25° C.

[6] = substrate: CCCCC/C=C\C/C=C\C/C=C\C/C=C\CCCC(=O)O; test: Kinetics of oxygenation of arachidonic acid or arachidonoyl-lysophospholipids by soybean LOX-1; assay type: biochemical; details: other: soybean LOX-1 2.5 units/ml, 50 mM borax buffer pH 9.0, 25° C.
Method: as §1, §2

[7] = substrate: CC/C=C\C/C=C\C/C=C\C/C=C\C/C=C\C/C=C\CCC(=O)O; test: Kinetics of oxygenation of docosahexaenoic acid derivatives by soybean LOX-1; assay type: biochemical; details: other: soybean LOX-1 2.5 units/ml, 50 mM borax buffer pH 9.0, 25° C.
Method: as §4

Vm [1]: 63.2 units/mg | Vm (soybean LOX-1 [2]): 92.2 units/μg
Molecule: CCCCC/C=C\C/C=C\C/C=C\C/C=C\CCCC(=O)O [Arachidonic acid, arachidonic acid]

Vm (Reticulocyte LOX): 1029 ± 22 units/mg | Km (Reticulocyte LOX): 90 ± 7.3 µM
Molecule: CCCCC/C=C\C/C=C\CCCCCCCC(=O)OC[C@H](COP(=O)(O)O)OC(=O)CCCCCCC/C=C\C/C=C\CCCCC [Dilinoleoyl-PA]

Vm (Reticulocyte LOX): 443 ± 9 units/mg | Km (Reticulocyte LOX): 8.3 ± 0.6 µM | Vm (Porcine leukocyte LOX; 0.03% Tween 20): 30.7 ± 0.78 units/mg | Km (Porcine leukocyte LOX; substrate 3-100 μM, 0.03% Tween 20, 25° C.): 35.5 ± 3.77 µM
Molecule: CCCCC/C=C\C/C=C\CCCCCCCC(=O)OCC(O)COP(=O)(O)O (stereo not drawn) [Linoleoyl-lysoPA]

Molecule: didocosahexaenenoyl phosphatidylcholine [Didocosahexaenoyl-PC]
Km (soybean LOX-1 [3]): 1070 ± 184 µM | Vm (soybean LOX-1 [3]): 7.8 ± 0.3 units/μg

B1: Leukocyte 12-lipoxygenase (leukocyte LOX) (Sus scrofa) (protein)
chain: T1 sequence (P16469 1-663)
notes: purchased Cayman Chemical Co. (Ann Arbor, Mich., USA)
Km [4]: 7.7 µM | Vmax [4]: 63.2 ± 11.9 units/mg | Vmax/Km [4]: 8.2 ± 1.5 units/mg/μM

B2: Porcine leukocyte LOX (Sus scrofa) (protein)
chain: T1 sequence (P16469 1-663)
notes: as for B1
Km [5]: 17.6 ± 1.7 µM | Vmax [5]: 35.9 µmol/min/mg | Vmax/Km [5]: 2.1e+06 µL/min/mg

B3: soybean LOX-1 (Glycine max) (protein)
chain: T2 sequence (P08170 1-839)
notes: purchased Sigma-Aldrich Corp (St. Louis, Mo., USA) lipoxidase Type I-B
Km [6]: 12.4 µM | Vmax [6]: 92200 nmol/min/mg | Vmax/Km [6]: 7.4e+06 µL/min/mg | Km [7]: 16.8 ± 1.4 µM | Vmax [7]: 178000 nmol/min/mg
